Consider one molecule from PMC3285612.

Assay [1] has as its target activated coagulation factor X (FXa), human (human). Description: enzyme inhibition assay (Ki from IC50 by Cheng and Prusoff); rSimukunin titrated against a constant concentration of enzyme, pre-incubated 5 min, fluorogenic peptidyl substrate 250 µM, 30°C; Ki calculated from the IC50 and the substrate's Km; estimated.
Assay [2] shares this target.

B1: recombinant Simukunin (rSV-66) (natural protein)
chain: QENVCNLPVDEGVCRALFKRFYYEPATDSCKEFYYGGCEGNGNRFKSKKECILKCQKNKQLIKTRKRKPKKTTKPPIPIISLD
The Ki is the dissociation constant of the complex between target and ligand, obtained from inhibition or displacement. On to B1, for which the Ki in assay [1] is 2.1 nM. The molecule further gave an IC50 of inhibition of enzyme activity (fluorogenic peptidyl substrate, 250 µM); Factor Xa 0.1 nM in assay [2] of 5.2 nM.
